From the supplement of paper PMC12764529
± gives the half width of the 95% confidence interval.

Columns and labels:
[1] = folding stability dG unfold (combined trypsin and chymotrypsin); higher = more stable
How it was run: (§1)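 Digests were run with trypsin and chymotrypsin at 11 concentrations in threefold dilutions, plus a no-protease condition, on designed mini-proteins in a PA-tagged cDNA display construct. The mini-proteins were under 80 residues, had no cysteine, and were kept only when AlphaFold2 dimer inter-PAE was above 15. After sequencing, Bayesian fitting of the counts gave K50, from which unfolding free energy was derived against a sequence-predicted unfolded-state K50 and a shared folded-state K50, per protease or combined.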

[2] = folding stability dG unfold from trypsin proteolysis; higher = more stable
How it was run: as §1

[3] = folding stability dG unfold from chymotrypsin proteolysis; higher = more stable
How it was run: as §1

## SAGGSAGGSKVLIIEPEENKELAEKIAKELKEKGELGEVEIKTFSSPEEAKEYAKNYDIVITGSAGGSAGGS [r12_679_TrMRF]
[1]
  folding stability dG unfold: 0.302 ± 0.14 kcal/mol
[2]
  folding stability dG unfold: -0.0715 ± 0.22 kcal/mol
[3]
  folding stability dG unfold: 0.528 ± 0.17 kcal/mol

## SAGMVVVKVTLPGPEEALRAAAAAVPVPVSIERDPEKPDVWTATITFPSPELAPVFVEAFAALGAEVVGSAG [r14_745_JUSTAS]
[1]
  folding stability dG unfold: 1.69 ± 0.069 kcal/mol
[2]
  folding stability dG unfold: 1.96 ± 0.041 kcal/mol
[3]
  folding stability dG unfold: 1.29 ± 0.041 kcal/mol

## SAGGSAEIEIVIVVPEGASEEQVKALAKELKEELEKLLKVKDKDGKEKEVKIKKIKITVIVLPKEESAGGSA [r15_717_TrROS_Hall]
[1]
  folding stability dG unfold: 2.42 ± 0.2 kcal/mol
[2]
  folding stability dG unfold: 2.37 ± 0.087 kcal/mol
[3]
  folding stability dG unfold: 2.56 ± 0.064 kcal/mol

## SAGGSAGGSAKENEKISIGPEITETGLDILEIKVDTNTKVVTIRFANKIYRIDKNGNISIVSSAGGSAGGSA [r18_445_TrMRF]
[1]
  folding stability dG unfold: 2.18 ± 0.17 kcal/mol
[2]
  folding stability dG unfold: 1.73 ± 0.065 kcal/mol
[3]
  folding stability dG unfold: 2.51 ± 0.13 kcal/mol

## SAGGSAGGVLRMVRRALKNGKNRPIVIYVPEPEQRNFIKWLKDEWPGIKIKVVPPDQMPPNQIISAGGSAGG [r6_87_TrROS]
[1]
  folding stability dG unfold: 1.46 ± 0.094 kcal/mol
[2]
  folding stability dG unfold: 1.42 ± 0.033 kcal/mol
[3]
  folding stability dG unfold: 1.31 ± 0.068 kcal/mol

## SAGGSAAEPVVLVFKTPESEALITVPPAFVQRVTVDPGGTVRRITVDLPDGTRTFLITDDSIFVDDSAGGSA [r15_598_TrMRF]
[1]
  folding stability dG unfold: 0.709 ± 0.068 kcal/mol
[2]
  folding stability dG unfold: 0.753 ± 0.048 kcal/mol
[3]
  folding stability dG unfold: 0.581 ± 0.12 kcal/mol

## SAGGSAGGSALKPGEPITIIFLFKEPNGRPYIMVIEIEVNPDGGIKIKGMEMITLEDLDKISAGGSAGGSAG [r3_212_TrROS]
[1]
  folding stability dG unfold: 4.43 ± 0.25 kcal/mol
[2]
  folding stability dG unfold: 2.97 ± 0.21 kcal/mol
[3]
  folding stability dG unfold: 4.54 ± 0.19 kcal/mol

## SAGGSAGGMEPLTRVTVELELPGGETRVVEGDDLEAVKERLKEELGLPDLVVKSVKTTPLPALESAGGSAGG [r6_406_JUSTAS]
[1]
  folding stability dG unfold: 0.857 ± 0.077 kcal/mol
[2]
  folding stability dG unfold: 0.6 ± 0.045 kcal/mol
[3]
  folding stability dG unfold: 0.974 ± 0.027 kcal/mol

## SAGGSALYIPPGTEHTVLIKLKDDDRYYEAKVTRVYPTSIEVEVEDPLTGEKKRYTINATDIELGDSAGGSA [r15_381_TrMRF]
[1]
  folding stability dG unfold: 2.18 ± 0.18 kcal/mol
[2]
  folding stability dG unfold: 2.14 ± 0.12 kcal/mol
[3]
  folding stability dG unfold: 2.24 ± 0.07 kcal/mol

## SAGMIKIEETDGKLKVTITLKADDPEEITVEMIKEELEKLGLEVAEIKITPEPNEDGQYTVTAEIVVDVSAG [r5_922_TrMRF]
[1]
  folding stability dG unfold: 3.08 ± 0.23 kcal/mol
[2]
  folding stability dG unfold: 2.99 ± 0.39 kcal/mol
[3]
  folding stability dG unfold: 3.06 ± 0.16 kcal/mol

## SAGGMTKTVTVTIEIDVPPGVTVDELIEKLKELAEKLGLTVKVTSVTVEEVDGKLVVTVEVEIEPPEPSAGG [r13_351_TrROS_Hall]
[1]
  folding stability dG unfold: 2.5 ± 0.31 kcal/mol
[2]
  folding stability dG unfold: 2.58 ± 0.25 kcal/mol
[3]
  folding stability dG unfold: 2.6 ± 0.18 kcal/mol

## GFEVTAEIEVYEDPESGAKVVKVTIPVKNGDPEVLEKAAKELAKKLFGPGAKFDPKIDPETGRVEVTGVLAS [r1_273_TrMRF]
[1]
  folding stability dG unfold: 1.38 ± 0.13 kcal/mol
[2]
  folding stability dG unfold: 0.942 ± 0.046 kcal/mol
[3]
  folding stability dG unfold: 1.57 ± 0.07 kcal/mol

## SAGGKTYKIKVTVEVKNENGETEKKEYVIEVKENKTPEEIAEELKKKLGVEKVEIVDPKTGKKYTIELSAGG [r13_663_TrROS_Hall]
[1]
  folding stability dG unfold: 2.83 ± 0.084 kcal/mol
[2]
  folding stability dG unfold: 1.9 ± 0.052 kcal/mol
[3]
  folding stability dG unfold: 3.185 ± 0.029 kcal/mol

## SAGGSAGGNWKVEIWPNGEQQEYTIDEIKKQLKNDIPPNYMIRVKGSGKWIPVRELLKEAGIPLSAGGSAGG [r6_937_TrROS]
[1]
  folding stability dG unfold: 0.691 ± 0.076 kcal/mol
[2]
  folding stability dG unfold: 0.382 ± 0.077 kcal/mol
[3]
  folding stability dG unfold: 0.793 ± 0.11 kcal/mol

## SAGGSMKTITDPGNLSEEEIKKILSKFPPNTTVTIEFPDATHTVTLNPDKIEISRDPSYPNFRITITISSAG [r5_373_JUSTAS]
[1]
  folding stability dG unfold: 1.72 ± 0.1 kcal/mol
[2]
  folding stability dG unfold: 1.31 ± 0.029 kcal/mol
[3]
  folding stability dG unfold: 2.01 ± 0.036 kcal/mol

## SAGGSAGGSADKIEIRVKLKIPNTDEILTFPIWVDPENPEEVAKAIAAWLEKNGYEIESFEGSAGGSAGGSA [r18_3_TrMRF]
[1]
  folding stability dG unfold: 3.98 ± 0.16 kcal/mol
[2]
  folding stability dG unfold: 3.53 ± 0.23 kcal/mol
[3]
  folding stability dG unfold: 4.14 ± 0.15 kcal/mol

## SAGGSAGGSAGPEITVVKAPDEGYYYLIKLKVTYTLRDPETTAPLAEFEVEYYFLDRGSASAGGSAGGSAGG [r17_124_TrMRF]
[1]
  folding stability dG unfold: 4.58 ± 0.47 kcal/mol
[2]
  folding stability dG unfold: 3.3 ± 0.28 kcal/mol
[3]
  folding stability dG unfold: 4.91 ± 0.12 kcal/mol

## SAGGSAGGMTVDPENPVVYYPGSDGKAQTYPLSPDSSLKLPDGKVVTVTPVPEGSVSVSVSPVESAGGSAGG [r6_296_JUSTAS]
[1]
  folding stability dG unfold: 1.02 ± 0.036 kcal/mol
[2]
  folding stability dG unfold: 0.571 ± 0.03 kcal/mol
[3]
  folding stability dG unfold: 1.249 ± 0.011 kcal/mol

## SMVIEINEDGTVKVYLPEELKGLSAEEIEELIKKLFGPNVKIEKIEIFEPPPKLTEEEKEELKKLPKEEKSA [r9_1011_TrROS_Hall]
[1]
  folding stability dG unfold: 1.41 ± 0.33 kcal/mol
[2]
  folding stability dG unfold: 0.866 ± 0.17 kcal/mol
[3]
  folding stability dG unfold: 1.76 ± 0.14 kcal/mol

## SAGGSAKTIKIWIPVKGMTPEMLEEIARDILEELGMKVDIEPHPGDGYIEVTFKLPGKDIEIIIPWSAGGSA [r15_168_TrROS]
[1]
  folding stability dG unfold: 2.61 ± 0.16 kcal/mol
[2]
  folding stability dG unfold: 2.04 ± 0.062 kcal/mol
[3]
  folding stability dG unfold: 3.04 ± 0.1 kcal/mol

## SAMKETEIPDPVTGNTYTVIDFDDATVVIKNYPDSLTITIIPPPSNTSTTIPMKPGEEEKVLKELGIPPSAG [r14_4_JUSTAS]
[1]
  folding stability dG unfold: 0.568 ± 0.16 kcal/mol
[2]
  folding stability dG unfold: 0.591 ± 0.087 kcal/mol
[3]
  folding stability dG unfold: 0.316 ± 0.23 kcal/mol

## SAGKINIPPDTDITVKISTEKKPNPPSPEEEEYVGVSYIKVKKNPDGSIEVEEEKFEIISKEEAEKMGLSAG [r5_340_JUSTAS]
[1]
  folding stability dG unfold: 0.23 ± 0.28 kcal/mol
[2]
  folding stability dG unfold: 0.16 ± 0.13 kcal/mol
[3]
  folding stability dG unfold: 0.177 ± 0.31 kcal/mol

## SAGGSAGGSAGDIDPEDDIFYLTVRLKDGVPFVLPVRYDDIPFIPPEFVEEATFHKPKDISAGGSAGGSAGG [r11_779_TrMRF]
[1]
  folding stability dG unfold: 0.246 ± 0.083 kcal/mol
[2]
  folding stability dG unfold: 0.365 ± 0.096 kcal/mol
[3]
  folding stability dG unfold: 0.0924 ± 0.18 kcal/mol

## SAGGSAGGSAMKIEIEVDPKTNVIYIRVNGLVYRFTKSEDGYIYIEVYDKNGKLIETFRLKLSAGGSAGGSA [r18_333_TrROS_Hall]
[1]
  folding stability dG unfold: 4.4 ± 0.18 kcal/mol
[2]
  folding stability dG unfold: 3.52 ± 0.13 kcal/mol
[3]
  folding stability dG unfold: 4.83 ± 0.1 kcal/mol

## SAGGSAGGSAGGGSVTIRVESPEEAVATAKELLEKLTGAKPEATPLNVVVEEPDGVATVESAGGSAGGSAGG [r7_387_JUSTAS]
[1]
  folding stability dG unfold: 0.378 ± 0.13 kcal/mol
[2]
  folding stability dG unfold: 1.03 ± 0.058 kcal/mol
[3]
  folding stability dG unfold: -0.721 ± 0.18 kcal/mol

## SAGGSAGGSAKKIVIKVKPGMTEEEILEEIAKKLGLKPEKIKKIEIERNKDGYLYVTIEIESAGGSAGGSAG [r3_26_TrROS_Hall]
[1]
  folding stability dG unfold: 3.82 ± 0.083 kcal/mol
[2]
  folding stability dG unfold: 3.66 ± 0.16 kcal/mol
[3]
  folding stability dG unfold: 3.87 ± 0.065 kcal/mol

## SAGGSIEEVIEELIKSGKPPSKEEIKEAIKKAIEEEVKKKGKKIPKVNIKKITSNPETGKIPIEIIISAGGS [r16_365_JUSTAS]
[1]
  folding stability dG unfold: 0.356 ± 0.17 kcal/mol
[2]
  folding stability dG unfold: -0.757 ± 0.41 kcal/mol
[3]
  folding stability dG unfold: 0.784 ± 0.056 kcal/mol

## SAGGSAGGSAGMKTLKTTTKVFPGTGVIVTESLVEFPNGSLKKLTKVTYVKNPNPSTTLASAGGSAGGSAGG [r17_41_JUSTAS]
[1]
  folding stability dG unfold: 0.602 ± 0.19 kcal/mol
[2]
  folding stability dG unfold: 0.474 ± 0.093 kcal/mol
[3]
  folding stability dG unfold: 0.545 ± 0.14 kcal/mol

## SAGGSAGGSMRTITYEFPPGTTKEEVIEKVKELAKKEGLPIEKIESITEDPETGTYTVTVVVKSAGGSAGGS [r12_131_JUSTAS]
[1]
  folding stability dG unfold: 4.59 ± 0.34 kcal/mol
[2]
  folding stability dG unfold: 4.2 ± 0.42 kcal/mol
[3]
  folding stability dG unfold: 4.65 ± 0.14 kcal/mol

## SAGGSAGGSAGMIVLFPLEEKKFIIYDPETGKVEEIEGTPEEVLEYAKKKYPDKEVYLLPSAGGSAGGSAGG [r11_614_TrMRF]
[1]
  folding stability dG unfold: 5.15 ± 0.49 kcal/mol
[2]
  folding stability dG unfold: 3.25 ± 0.36 kcal/mol
[3]
  folding stability dG unfold: 5.19 ± 0.3 kcal/mol

## SSPLINILTVEVTAETPSGGSFSKTFTFPASKYTEEEIREKIKEEYPDLTDIKITPKVTKIPPGPKILLASA [r9_841_JUSTAS]
[1]
  folding stability dG unfold: 1.76 ± 0.18 kcal/mol
[2]
  folding stability dG unfold: 1.29 ± 0.07 kcal/mol
[3]
  folding stability dG unfold: 1.98 ± 0.18 kcal/mol
